Tests used:
domain III of HSA = target: T1, domain III of HSA (human, UniProt P02768 405-609, limits assumed); test: SPR on HSA domains
T1 construct: domain: III; also called HuSA domainIII

domain I of HSA = target: T2, domain I of HSA (human, UniProt P02768 25-221, limits assumed); test: SPR on HSA domains
T2 construct: domain: I; also called HSA domain I

mouse serum albumin [1] = target: T3, mouse serum albumin (mouse, UniProt P07724 25-608); test: SPR, albumin immobilized;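 on KD: biacore SPR with human, rhesus or mouse serum albumin amine-coupled to the chip (about 1200 RU), 3 min association, 6-10 min dissociation, reference-subtracted traces fitted with a 1:1 model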
T3 construct: also called MSA; MuSA

human serum albumin [2] = target: T4, human serum albumin (human, UniProt P02768 25-609); test: SPR, albumin immobilized, acetate pH 5.5
T4 construct: immobilized on chips or coated on plates elsewhere; also called HSA; HuSA

mouse serum albumin [3] = target: T3, mouse serum albumin; test: SPR, albumin immobilized, acetate pH 5.5
rhesus serum albumin [4] = target: T5, rhesus serum albumin (rhesus, UniProt Q28522 17-600); test: SPR, albumin immobilized, acetate pH 5.5
T5 construct: also called RhSA; Rh-SA

human serum albumin [5] = target: T4, human serum albumin; test: SPR, albumin immobilized, HBS-P pH 7.4
mouse serum albumin [6] = target: T3, mouse serum albumin; test: SPR, albumin immobilized, HBS-P pH 7.4
rhesus serum albumin [7] = target: T5, rhesus serum albumin; test: SPR, albumin immobilized, HBS-P pH 7.4
human serum albumin [8] = target: T4, human serum albumin; test: hFcRn:HSA competition AlphaScreen, pH 5.5
human serum albumin [9] = target: T4, human serum albumin; test: SPR, albumin immobilized, acetate pH 5.5; remark: listed apart in the source
mouse serum albumin [10] = target: T3, mouse serum albumin; test: SPR, albumin immobilized, acetate pH 5.5; remark: listed apart in the source
rhesus serum albumin [11] = target: T5, rhesus serum albumin; test: SPR, albumin immobilized, acetate pH 5.5; remark: listed apart in the source
human serum albumin [12] = target: T4, human serum albumin; test: SPR, albumin immobilized;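 further: biacore SPR with human, rhesus or mouse serum albumin amine-coupled to the chip (about 1200 RU), 3 min association, 6-10 min dissociation, reference-subtracted traces fitted with a 1:1 model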
mouse serum albumin [13] = target: T3, mouse serum albumin; test: SPR, albumin immobilized; remark: listed apart in the source;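 on KD: biacore SPR with human, rhesus or mouse serum albumin amine-coupled to the chip (about 1200 RU), 3 min association, 6-10 min dissociation, reference-subtracted traces fitted with a 1:1 model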
rhesus serum albumin [14] = target: T5, rhesus serum albumin; test: SPR, albumin immobilized;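 further: biacore SPR with human, rhesus or mouse serum albumin amine-coupled to the chip (about 1200 RU), 3 min association, 6-10 min dissociation, reference-subtracted traces fitted with a 1:1 model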
mouse serum albumin [15] = target: T3, mouse serum albumin; test: Albumin KD (37° C.), summary table; mouse serum albumin (third value of the list)
human serum albumin [16] = target: T4, human serum albumin; test: direct binding ELISA, albumin coated
mouse serum albumin [17] = target: T3, mouse serum albumin; test: direct binding ELISA, albumin coated
rhesus serum albumin [18] = target: T5, rhesus serum albumin; test: direct binding ELISA, albumin coated
human serum albumin [19] = target: T4, human serum albumin; test: Albumin KD (37° C.), summary table; human serum albumin (first value in the cell)
human PCSK9 [20] = target: T6, human PCSK9 (human, UniProt Q8NBP7 31-692); test: PCSK9:EGFA FRET 1, competition
T6 construct: also called hPCSK9; huPCSK9

cynomolgus serum albumin = target: T7, cynomolgus serum albumin (cynomolgus, UniProt A2V9Z4 25-608); test: Albumin KD (37° C.), summary table; cynomolgus serum albumin (second value in the cell)
T7 construct: also called cynoSA; CySA

human PCSK9 [21] = target: T6, human PCSK9; test: PCSK9:LDLR FRET, competition
human PCSK9 [22] = target: T6, human PCSK9; test: BLI (Octet), biotinylated PCSK9 on tips, no HSA
rat serum albumin = target: T8, rat serum albumin (rat, UniProt P02770 25-608); test: Albumin KD (37° C.), summary table; rat serum albumin (fourth value of the list)
T8 construct: also called Rat SA; RSA

human PCSK9 [23] = target: T6, human PCSK9; test: PCSK9:EGFA FRET human, summary table
human serum albumin [24] = target: T4, human serum albumin; test: SPR, albumin immobilized, acetate pH 7.4
mouse serum albumin [25] = target: T3, mouse serum albumin; test: SPR, albumin immobilized, acetate pH 7.4
rhesus serum albumin [26] = target: T5, rhesus serum albumin; test: SPR, albumin immobilized, acetate pH 7.4
human serum albumin [27] = target: T4, human serum albumin; test: SPR, albumin immobilized, HBSP pH 7.4
mouse serum albumin [28] = target: T3, mouse serum albumin; test: SPR, albumin immobilized, HBSP pH 7.4
rhesus serum albumin [29] = target: T5, rhesus serum albumin; test: SPR, albumin immobilized, HBSP pH 7.4
human PCSK9 [30] = target: T6, human PCSK9; test: BLI (Octet), biotinylated PCSK9 on tips, tandem in complex with excess HSA
human PCSK9 [31] = target: T6, human PCSK9; test: PCSK9:EGFA FRET 2, competition
cynomolgus PCSK9 = target: T9, cynomolgus PCSK9 (cynomolgus, UniProt A0A7N9D9N8 150-747); test: Octet Red, 37° C., core
T9 construct: also called cyno PCSK9

human PCSK9 [32] = target: T6, human PCSK9; test: Octet Red, 37° C., core

B1: PKE2 Adnectin 2270_C01 (designed binder)
chain: MASTSGVPRDLEVVAATPTSLLISWDAPAVTVRYYRITYGWQVQMYSDWGPLYIYKEFTVPGSKSTATISGLKPGVDYTITVYAVTGSGESPASSKPISINYRTEGDKPSQHHHHHH
notes: 10Fn3 domain with modified CD loop; the entry includes the His6 tail
- binding result (domain III of HSA): no binding
- binding result (domain I of HSA): no binding
- fold weaker affinity than for human or rhesus albumin (mouse serum albumin [1]): ~10 fold
- Kd (human serum albumin [2]): 8.82 nM
- koff (human serum albumin [2]): 0.000898 s⁻¹
- kon (human serum albumin [2]): 102000 M⁻¹ s⁻¹
- Kd (mouse serum albumin [3]): ~192 nM
- koff (mouse serum albumin [3]): 0.0146 s⁻¹
- kon (mouse serum albumin [3]): 75900 M⁻¹ s⁻¹
- Kd (rhesus serum albumin [4]): 17.6 nM
- koff (rhesus serum albumin [4]): 0.00105 s⁻¹
- kon (rhesus serum albumin [4]): 59600 M⁻¹ s⁻¹
- Kd (human serum albumin [5]): 5.58 nM
- koff (human serum albumin [5]): 0.000368 s⁻¹
- kon (human serum albumin [5]): 65900 M⁻¹ s⁻¹
- Kd (mouse serum albumin [6]): 67.7 nM
- koff (mouse serum albumin [6]): 0.00909 s⁻¹
- kon (mouse serum albumin [6]): 134000 M⁻¹ s⁻¹
- Kd (rhesus serum albumin [7]): 6.98 nM
- koff (rhesus serum albumin [7]): 0.000577 s⁻¹
- kon (rhesus serum albumin [7]): 82700 M⁻¹ s⁻¹
- IC50 (human serum albumin [8]): 37 nM

B2: PCSK9-PKE2 tandem Adnectin w/ his tag 4472_C06 (designed binder)
chain: MGVSDVPRDLEVVAATPTSLLISWDAPAEGYGYYRITYGETGGNSPVQEFTVPVSKGTATISGLKPGVDYTITVYAVEFDFPGAGYYHRPISINYRTEPSTPPTPSPSTPPTPSPSGVSDVPRDLEVVAATPTSLLISWDAPAVTVRYYRITYGREVQKYSDLGPLYIYQEFTVPGSKSTATISGLKPGVDYTITVYAVTGSGESPASSKPISINYRTEHHHHHH
notes: also called ATI-1574; ADX_4472_C06
- Kd (human serum albumin [9]): 38.2 nM
- koff (human serum albumin [9]): 0.000466 s⁻¹
- kon (human serum albumin [9]): 12200 M⁻¹ s⁻¹
- Kd (mouse serum albumin [10]): 123 nM
- koff (mouse serum albumin [10]): 0.00161 s⁻¹
- kon (mouse serum albumin [10]): 13100 M⁻¹ s⁻¹
- Kd (rhesus serum albumin [11]): 97.5 nM
- koff (rhesus serum albumin [11]): 0.000815 s⁻¹
- kon (rhesus serum albumin [11]): 8360 M⁻¹ s⁻¹
- Kd (human serum albumin [12]): 73.7 nM
- koff (human serum albumin [12]): 0.000289 s⁻¹
- kon (human serum albumin [12]): 3920 M⁻¹ s⁻¹
- Kd (mouse serum albumin [13]): 26.1 nM
- koff (mouse serum albumin [13]): 0.000301 s⁻¹
- kon (mouse serum albumin [13]): 11500 M⁻¹ s⁻¹
- Kd (rhesus serum albumin [14]): 77 nM
- koff (rhesus serum albumin [14]): 0.000337 s⁻¹
- kon (rhesus serum albumin [14]): 4380 M⁻¹ s⁻¹
- Kd (mouse serum albumin [15]): 43 nM
- EC50 (human serum albumin [16]): 184 nM
- EC50 (mouse serum albumin [17]): 15.6 nM
- EC50 (rhesus serum albumin [18]): 131 nM
- Kd (human serum albumin [19]): 57 nM
- IC50 (human PCSK9 [20]): 9.18 nM
- Kd (cynomolgus serum albumin): 51 nM
- IC50 (human PCSK9 [21]): 1.4 nM
- Kd (human PCSK9 [22]): 0.515 nM
- koff (human PCSK9 [22]): 0.000168 s⁻¹
- kon (human PCSK9 [22]): 336000 M⁻¹ s⁻¹
- Kd (rat serum albumin): 200 nM
- IC50 (human PCSK9 [23]): 1.5 nM
- Kd (human serum albumin [24]): 74.7 nM
- koff (human serum albumin [24]): 0.000325 s⁻¹
- kon (human serum albumin [24]): 4350 M⁻¹ s⁻¹
- Kd (mouse serum albumin [25]): 34.8 nM
- koff (mouse serum albumin [25]): 0.000375 s⁻¹
- kon (mouse serum albumin [25]): 10800 M⁻¹ s⁻¹
- Kd (rhesus serum albumin [26]): 80.7 nM
- koff (rhesus serum albumin [26]): 0.000364 s⁻¹
- kon (rhesus serum albumin [26]): 4510 M⁻¹ s⁻¹
- Kd (human serum albumin [27]): 72 nM
- koff (human serum albumin [27]): 0.000258 s⁻¹
- kon (human serum albumin [27]): 3580 M⁻¹ s⁻¹
- Kd (mouse serum albumin [28]): 28.2 nM
- koff (mouse serum albumin [28]): 0.000336 s⁻¹
- kon (mouse serum albumin [28]): 11900 M⁻¹ s⁻¹
- Kd (rhesus serum albumin [29]): 78.9 nM
- koff (rhesus serum albumin [29]): 0.000305 s⁻¹
- kon (rhesus serum albumin [29]): 3860 M⁻¹ s⁻¹
- Kd (human PCSK9 [30]): 1.55 nM
- koff (human PCSK9 [30]): 0.000305 s⁻¹
- kon (human PCSK9 [30]): 197000 M⁻¹ s⁻¹
- IC50 (human PCSK9 [31]): 3.09 nM

B3: PCSK9 Adnectin 2382_D09 (designed binder)
chain: MGVSDVPRDLEVVAATPTSLLISWDAPAEGYGYYRITYGETGGNSPVQEFTVPVSKGTATISGLKPGVDYTITVYAVEFDFPGAGYYHRPISINYRT
- Kd (cynomolgus PCSK9): 39 nM
- Kd (human PCSK9 [32]): 0.14 nM
- IC50 (human PCSK9 [20]): 19.7 nM
- IC50 (human PCSK9 [21]): 2.3 nM
- IC50 (human PCSK9 [31]): 10.6 nM
